Experimental data as given in PMC11259198.
Each block holds one substance with its values, some of them ahead of it.

Key:
Experiment in all cases: SEC
[1] = target: globular N-terminal domain of human apolipoprotein A-I (residue fragment 1–184), Glu34Lys (human)
[2] = target: globular N-terminal domain of human apolipoprotein A-I (residue fragment 1–184), Leu159Arg (human)
[3] = target: globular N-terminal domain of human apolipoprotein A-I (residue fragment 1–184), Phe71Tyr (human)
[4] = target: globular N-terminal domain of human apolipoprotein A-I (residue fragment 1–184), wild type (human)

- stoichiometry N [1]: 2
Substance: globular N-terminal domain of human apolipoprotein A-I (residue fragment 1–184), Glu34Lys (domain or fragment)

- stoichiometry N [2]: 2
Substance: globular N-terminal domain of human apolipoprotein A-I (residue fragment 1–184), Leu159Arg (domain or fragment)

- stoichiometry N [3]: 2
Substance: globular N-terminal domain of human apolipoprotein A-I (residue fragment 1–184), Phe71Tyr (domain or fragment)

- stoichiometry N [4]: 2
Substance: globular N-terminal domain of human apolipoprotein A-I (residue fragment 1–184), wild type (domain or fragment)
